# Several values for one entry are separate records, joined by “and”; a condition that tells them apart may be missing. Identical values can stand only once.
# Settings: whole UniProt chain shown
# [1] = Escherichia coli (strain K12), pH 7.5, 20 °C, GdnHCl, CD, HEPES 5 mM, NiCl2 5 mM, reversible: Yes
# [2] = Escherichia coli (strain K12), pH 7, Thermal, DSC, Potassium phosphate 50 mM, KCl 0.5 M, reversible: no
# [3] = Escherichia coli (strain K12), pH 7.8, 23 °C, Urea, Fluorescence, Tris-HCl 10 mM, NaCl 100 mM, reversible: yes
# [4] = Equus caballus, pH 4, 25 °C, GdnHCl, CD, Citrate 50 mM
# [5] = Equus caballus, pH 4, 25 °C, GdnHCl, CD, Formate 50 mM
# [6] = Equus caballus, pH 4, 25 °C, Urea, CD, Citrate 50 mM
# [7] = Equus caballus, pH 4, 25 °C, Urea, CD, Formate 50 mM
# [8] = Escherichia coli (strain K12), pH 7.5, 10 °C, Urea, CD, LcrH
# [9] = Escherichia coli (strain K12), pH 7.5, 20 °C, Urea, CD, LcrH
protein,measurement,setting,value
"Shikimate kinase 2 wild type, P10880 (protein) MTEPIFMVGARGCGKTTVGRELARALGYEFVDTDIFMQHTSGMTVADVVAAEGWPGFRRRESEALQAVATPNRVVATGGGMVLLEQNRQFMRAHGTVVYLFAPAEELALRLQASPQAHQRPTLTGRPIAEEMEAVLREREALYQDVAHYVVDATQPPAAIVCELMQTMRLPAA",denaturant midpoint (higher = more stable),"Dickeya chrysanthemi, pH 7.6, 25 °C, Urea, Fluorescence, Tris-HCl 35 mM, KCl 5 mM",2.1 M
"Peptide deformylase wild type, P0A6K3 (protein) MSVLQVLHIPDERLRKVAKPVEEVNAEIQRIVDDMFETMYAEEGIGLAATQVDIHQRIIVIDVSENRDERLVLINPELLEKSGETGIEEGCLSIPEQRALVPRAEKVKIRALDRDGKPFELEADGLLAICIQHEMDHLVGKLFMDYLSPLKQQRIRQKVEKLDRLKARA",denaturant m value,[1],1.8 kcal/mol/M
same,unfolding free energy,[1],4.4 kcal/mol
"L-asparaginase 2 wild type, P00805 (protein) MEFFKKTALAALVMGFSGAALALPNITILATGGTIAGGGDSATKSNYTVGKVGVENLVNAVPQLKDIANVKGEQVVNIGSQDMNDNVWLTLAKKINTDCDKTDGFVITHGTDTMEETAYFLDLTVKCDKPVVMVGAMRPSTSMSADGPFNLYNAVVTAADKASANRGVLVVMNDTVLDGRDVTKTNTTDVATFKSVNYGPLGYIHNGKIDYQRTPARKHTSDTPFDVSKLNELPKVGIVYNYANASDLPAKALVDAGYDGIVSAGVGNGNLYKSVFDTLATAAKTGTAVVRSSRVPTGATTQDAEVDDAKYGFVASGTLNPQKARVLLQLALTQTKDPQQIQQIFNQY",unfolding free energy,"Escherichia coli (strain K12), pH 7.4, 25 °C, Urea, Fluorescence, Tris-HCl 50 mM",11.5 kcal/mol
"Aspartate carbamoyltransferase catalytic subunit wild type, P0A786 (protein) MANPLYQKHIISINDLSRDDLNLVLATAAKLKANPQPELLKHKVIASCFFEASTRTRLSFETSMHRLGASVVGFSDSANTSLGKKGETLADTISVISTYVDAIVMRHPQEGAARLATEFSGNVPVLNAGDGSNQHPTQTLLDLFTIQETQGRLDNLHVAMVGDLKYGRTVHSLTQALAKFDGNRFYFIAPDALAMPQYILDMLDEKGIAWSLHSSIEEVMAEVDILYMTRVQKERLDPSEYANVKAQFVLRASDLHNAKANMKVLHPLPRVDEIATDVDKTPHAWYFQQAGNGIFARQALLALVLNRDLVL",unfolding free energy,"Escherichia coli (strain K12), pH 8.3, 7.5 °C, Urea, Absorbance, HEPES 0.1 M, reversible: yes",2 kcal/mol
"DNA-binding transcriptional dual regulator CRP wild type, P0ACJ8 (protein) MVLGKPQTDPTLEWFLSHCHIHKYPSKSTLIHQGEKAETLYYIVKGSVAVLIKDEEGKEMILSYLNQGDFIGELGLFEEGQERSAWVRAKTACEVAEISYKKFRQLIQVNPDILMRLSAQMARRLQVTSEKVGNLAFLDVTGRIAQTLLNLAKQPDAMTHPDGMQIKITRQEIGQIVGCSRETVGRILKMLEDQNLISAHGKTIVVYGTR",Tm,[2],66.4 °C
same,heat capacity change of unfolding,[2],0.42 kcal/mol/K
same,unfolding enthalpy (calorimetric),[2],131 kcal/mol
same,unfolding enthalpy (van 't Hoff),[2],231 kcal/mol
same,unfolding free energy,"Escherichia coli (strain K12), pH 7.9, 20 °C, GdnHCl, CD, Tris-HCl 50 mM, KCl 0.1 M, reversible: yes",7.2 kcal/mol
same,unfolding free energy,"Escherichia coli (strain K12), pH 7.9, 20 °C, Thermal, CD, Tris-HCl 50 mM, KCl 100 mM, reversible: yes",7.32 kcal/mol
"Glutamine-binding periplasmic protein wild type, P0AEQ3 (protein) MKSVLKVSLAALTLAFAVSSHAADKKLVVATDTAFVPFEFKQGDKYVGFDVDLWAAIAKELKLDYELKPMDFSGIIPALQTKNVDLALAGITITDERKKAIDFSDGYYKSGLLVMVKANNNDVKSVKDLDGKVVAVKSGTGSVDYAKANIKTKDLRQFPNIDNAYMELGTNRADAVLHDTPNILYFIKTAGNGQFKAVGDSLEAQQYGIAFPKGSDELRDKVNGALKTLRENGTYNEIYKKWFGTEPK",Tm,"Escherichia coli (strain K12), pH 8.3, Thermal, Absorbance, Tris-HCl 10 mM",63.1 °C and 66.2 °C
"DNA-Binding protein G5P wild type, P69542 (protein) MIKVEIKPSQAQFTTRSGVSRQGKPYSLNEQLCYVDLGNEYPVLVKITLDEGQPAYAPGLYTVHLSSFKVGQFGSLMIDRLRLVPAK",unfolding free energy,"Enterobacteria phage fd, pH 7, 25 °C, GdnHCl, CD, MOPS 0.05 M, NaCl 0.1 M, reversible: yes",16.3 kcal/mol
"Chemotaxis protein CheY wild type, P0AE67 (protein) MADKELKFLVVDDFSTMRRIVRNLLKELGFNNVEEAEDGVDALNKLQAGGYGFVISDWNMPNMDGLELLKTIRADGAMSALPVLMVTAEAKKENIIAAAQAGASGYVVKPFTAATLEEKLNKIFEKLGM",unfolding free energy,"Escherichia coli (strain K12), pH 7, 25 °C, Urea, Fluorescence, Cacodylate 100 mM",5.6 kcal/mol
"Ribose import binding protein RbsB wild type, P02925 (protein) MNMKKLATLVSAVALSATVSANAMAKDTIALVVSTLNNPFFVSLKDGAQKEADKLGYNLVVLDSQNNPAKELANVQDLTVRGTKILLINPTDSDAVGNAVKMANQANIPVITLDRQATKGEVVSHIASDNVLGGKIAGDYIAKKAGEGAKVIELQGIAGTSAARERGEGFQQAVAAHKFNVLASQPADFDRIKGLNVMQNLLTAHPDVQAVFAQNDEMALGALRALQTAGKSDVMVVGFDGTPDGEKAVNDGKLAATIAQLPDQIGAKGVETADKVLKGEKVQAKYPVDLKLVVKQ",unfolding free energy,"Escherichia coli (strain K12), pH 7.7, 25 °C, GdnHCl, Fluorescence, HEPES 10 mM, reversible: yes",5.1 kcal/mol
"Colicin-A wild type, Q47108 (protein) VAEKAKDERELLEKTSELIAGMGDKIGEHLGDKYKAIAKDIADNIKNFQGKTIRSFDDAMASLNKITANPAMKINKADRDALVNAWKHVDAQDMANKLGNLSKAFKVADVVMKVEKVREKSIEGYETGNWGPLMLEVESWVLSGIASSVALGIFSATLGAYALSLGVPAIAVGIAGILLAAVVGALIDDKFADALNNEIIRPAH",Tm,"Escherichia coli, pH 3, Thermal, DSC, Na2HPO4-citrate 30 mM, reversible: no",39 °C
same,Tm,"Escherichia coli, pH 3.5, Thermal, DSC, Na2HPO4-citrate 30 mM, reversible: no",49 °C
same,Tm,"Escherichia coli, pH 4, Thermal, DSC, Na2HPO4-citrate 30 mM, reversible: no",56 °C
same,Tm,"Escherichia coli, pH 7, Thermal, DSC, Na2HPO4-citrate 30 mM, reversible: no",69 °C
same,Tm,"Escherichia coli, pH 8, Thermal, DSC, Na2HPO4-citrate 30 mM, reversible: no",67 °C
"Protein GrpE wild type, P09372 (protein) MSSKEQKTPEGQAPEEIIMDQHEEIEAVEPEASAEQVDPRDEKVANLEAQLAEAQTRERDGILRVKAEMENLRRRTELDIEKAHKFALEKFINELLPVIDSLDRALEVADKANPDMSAMVEGIELTLKSMLDVVRKFGVEVIAETNVPLDPNVHQAIAMVESDDVAPGNVLGIMQKGYTLNGRTIRAAMVTVAKAKA",Tm,"Escherichia coli (strain K12), pH 7, Thermal, CD, potassium phosphate 25 mM, reversible: yes",48 °C
same,Tm,"Escherichia coli (strain K12), pH 7, Thermal, DSC, potassium phosphate 25 mM, reversible: yes",48 °C
"Outer membrane porin F wild type, P02931 (protein) MMKRNILAVIVPALLVAGTANAAEIYNKDGNKVDLYGKAVGLHYFSKGNGENSYGGNGDMTYARLGFKGETQINSDLTGYGQWEYNFQGNNSEGADAQTGNKTRLAFAGLKYADVGSFDYGRNYGVVYDALGYTDMLPEFGGDTAYSDDFFVGRVGGVATYRNSNFFGLVDGLNFAVQYLGKNERDTARRSNGDGVGGSISYEYEGFGIVGAYGAADRTNLQEAQPLGNGKKAEQWATGLKYDANNIYLAANYGETRNATPITNKFTNTSGFANKTQDVLLVAQYQFDFGLRPSIAYTKSKAKDVEGIGDVDLVNYFEVGATYYFNKNMSTYVDYIINQIDSDNKLGVGSDDTVAVGIVYQF",Tm,"Escherichia coli (strain K12), pH 7.5, Thermal, CD, Tris 50mM",79.3 °C
"Co-chaperonin GroES wild type, P0A6F9 (protein) MNIRPLHDRVIVKRKEVETKSAGGIVLTGSAAAKSTRGEVLAVGNGRILENGEVKPLDVKVGDIVIFNDGYGVKSEKIDNEEVLIMSESDILAIVEA",denaturant m value,[3],1.83 kcal/mol/M
same,unfolding free energy,[3],5.77 kcal/mol
"Beta-lactoglobulin-1 wild type, P02758 (protein) MKCLLLALGLALMCGIQATNIPQTMQDLDLQEVAGKWHSVAMAASDISLLDSESAPLRVYIEKLRPTPEDNLEIILREGENKGCAEKKIFAEKTESPAEFKINYLDEDTVFALDTDYKNYLFLCMKNAATPGQSLVCQYLARTQMVDEEIMEKFRRALQPLPGRVQIVPDLTRMAERCRI",denaturant m value,[4],4.74 kcal/mol/M
same,unfolding free energy,[4],10.1 kcal/mol
same,denaturant m value,[5],1.54 kcal/mol/M
same,unfolding free energy,[5],3.92 kcal/mol
same,denaturant m value,[6],2.9 kcal/mol/M
same,unfolding free energy,[6],9.83 kcal/mol
same,denaturant m value,[7],0.74 kcal/mol/M
same,unfolding free energy,[7],2.9 kcal/mol
"ATP-dependent 6-phosphofructokinase isozyme 2 wild type, P06999 (protein) MVRIYTLTLAPSLDSATITPQIYPEGKLRCTAPVFEPGGGGINVARAIAHLGGSATAIFPAGGATGEHLVSLLADENVPVATVEAKDWTRQNLHVHVEASGEQYRFVMPGAALNEDEFRQLEEQVLEIESGAILVISGSLPPGVKLEKLTQLISAAQKQGIRCIVDSSGEALSAALAIGNIELVKPNQKELSALVNRELTQPDDVRKAAQEIVNSGKAKRVVVSLGPQGALGVDSENCIQVVPPPVKSQSTVGAGDSMVGAMTLKLAENASLEEMVRFGVAAGSAATLNQGTRLCSHDDTQKIYAYLSR",unfolding free energy,"Escherichia coli (strain K12), pH 7.8, 20 °C, GdnHCl, Activity, Tris 50 mM, Magnesiun chloride 5 mM, reversible: Yes",12.1 kcal/mol
same,unfolding free energy,"Escherichia coli (strain K12), pH 7.8, 20 °C, GdnHCl, CD, Tris 50 mM, Magnesiun chloride 5 mM, reversible: Yes",12.2 kcal/mol
same,unfolding free energy,"Escherichia coli (strain K12), pH 7.8, 20 °C, GdnHCl, Fluorescence, Tris 50 mM, Magnesiun chloride 5 mM, reversible: Yes",11.9 kcal/mol
"Inorganic pyrophosphatase wild type, P0A7A9 (protein) MSLLNVPAGKDLPEDIYVVIEIPANADPIKYEIDKESGALFVDRFMSTAMFYPCNYGYINHTLSLDGDPVDVLVPTPYPLQPGSVIRCRPVGVLKMTDEAGEDAKLVAVPHSKLSKEYDHIKDVNDLPELLKAQIAHFFEHYKDLEKGKWVKVEGWENAEAAKAEIVASFERAKNK",Tm,"Escherichia coli (strain K12), pH 7, Thermal, CD, HEPES 20 mM, MgCl2 5 mM",84 °C
same,Tm,"Escherichia coli (strain K12), pH 7, Thermal, CD, HEPES 20 mM",58 °C
"Aspartate aminotransferase wild type, P00509 (protein) MFENITAAPADPILGLADLFRADERPGKINLGIGVYKDETGKTPVLTSVKKAEQYLLENETTKNYLGIDGIPEFGRCTQELLFGKGSALINDKRARTAQTPGGTGALRVAADFLAKNTSVKRVWVSNPSWPNHKSVFNSAGLEVREYAYYDAENHTLDFDALINSLNEAQAGDVVLFHGCCHNPTGIDPTLEQWQTLAQLSVEKGWLPLFDFAYQGFARGLEEDAEGLRAFAAMHKELIVASSYSKNFGLYNERVGACTLVAADSETVDRAFSQMKAAIRANYSNPPAHGASVVATILSNDALRAIWEQELTDMRQRIQRMRQLFVNTLQEKGANRDFSFIIKQNGMFSFSGLTKEQVLRLREEFGVYAVASGRVNVAGMTPDNMAPLCEAIVAVL",denaturant m value,[8],3.4 kcal/mol/M
same,unfolding free energy,[8],24.4 kcal/mol
same,denaturant m value,[9],4.8 kcal/mol/M
same,unfolding free energy,[9],12 kcal/mol
same,unfolding free energy,"Escherichia coli (strain K12), pH 7.5, 25 °C, Urea, enzyme activity, potassium phosphate 20 mM",10 kcal/mol
